Data reported in patent US20050233313.

Test system: β-galactosidase substrate with a cleavage cassette (decapeptide corresponding to an HIV protease cleavage site) inserted into its open reading frame [β-galactosidase: P00722]
Sequence (P00722 2-1024): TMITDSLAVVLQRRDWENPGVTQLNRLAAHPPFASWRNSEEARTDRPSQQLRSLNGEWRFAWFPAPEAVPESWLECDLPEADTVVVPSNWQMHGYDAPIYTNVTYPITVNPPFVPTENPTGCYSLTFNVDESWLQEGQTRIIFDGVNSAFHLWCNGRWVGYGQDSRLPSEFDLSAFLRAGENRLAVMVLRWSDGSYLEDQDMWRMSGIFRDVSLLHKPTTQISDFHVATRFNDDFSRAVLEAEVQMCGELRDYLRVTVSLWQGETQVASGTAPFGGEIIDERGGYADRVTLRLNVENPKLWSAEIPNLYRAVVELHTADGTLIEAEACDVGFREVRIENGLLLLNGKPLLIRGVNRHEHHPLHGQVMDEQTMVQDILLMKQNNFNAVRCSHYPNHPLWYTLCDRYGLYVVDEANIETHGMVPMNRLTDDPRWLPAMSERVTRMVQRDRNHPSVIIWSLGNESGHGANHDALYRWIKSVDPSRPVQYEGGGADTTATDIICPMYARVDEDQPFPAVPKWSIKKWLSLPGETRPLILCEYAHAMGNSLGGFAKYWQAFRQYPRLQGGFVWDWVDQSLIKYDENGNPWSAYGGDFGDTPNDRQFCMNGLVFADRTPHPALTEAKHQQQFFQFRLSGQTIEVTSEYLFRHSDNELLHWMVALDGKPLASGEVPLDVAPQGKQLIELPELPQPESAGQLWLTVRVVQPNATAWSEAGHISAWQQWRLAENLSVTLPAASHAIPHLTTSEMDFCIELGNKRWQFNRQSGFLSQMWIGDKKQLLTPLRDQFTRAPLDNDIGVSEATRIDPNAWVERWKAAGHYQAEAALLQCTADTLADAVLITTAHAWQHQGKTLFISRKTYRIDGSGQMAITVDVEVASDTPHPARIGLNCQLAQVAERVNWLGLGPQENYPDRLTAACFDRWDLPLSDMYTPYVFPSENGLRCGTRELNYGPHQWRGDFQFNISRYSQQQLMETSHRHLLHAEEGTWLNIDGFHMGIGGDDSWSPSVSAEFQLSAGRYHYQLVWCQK

“HIV-1 protease D25A (99 residues, HXB2) expressed from pMono” was tested, and the % Cleavage was 0%.
With “HIV-1 protease F99A (99 residues, HXB2) expressed from pMono” the % Cleavage was 0%.
Substance “HIV-1 protease I3A (99 residues, HXB2) expressed from pMono” has a % Cleavage of 0%.
In the case of “HIV-1 protease L97A (99 residues, HXB2) expressed from pMono”, the % Cleavage is reported as 0%.
“HIV-1 protease N98A (99 residues, HXB2) expressed from pMono” showed a % Cleavage of 68%.
For “HIV-1 protease P1A (99 residues, HXB2) expressed from pMono”, the % Cleavage was 92%.
“HIV-1 protease Q2A (99 residues, HXB2) expressed from pMono” showed a % Cleavage of 96%.
“HIV-1 protease T4A (99 residues, HXB2) expressed from pMono” gave a % Cleavage of 96%.
“HIV-1 protease T96A (99 residues, HXB2) expressed from pMono” was tested, and the % Cleavage was 14%.
